Experimental data: IntAct's records for PubMed 19858347

B1: Killer cell immunoglobulin-like receptor 2DS4 (Homo sapiens), P43632 (parent)
chain: MSLMVIIMACVGFFLLQGAWPQEGVHRKPSFLALPGHLVKSEETVILQCWSDVMFEHFLLHREGKFNNTLHLIGEHHDGVSKANFSIGPMMPVLAGTYRCYGSVPHSPYQLSAPSDPLDMVIIGLYEKPSLSAQPGPTVQAGENVTLSCSSRSSYDMYHLSREGEAHERRLPAVRSINGTFQADFPLGPATHGGTYRCFGSFRDAPYEWSNSSDPLLVSVTGNPSNSWPSPTEPSSKTGNPRHLHVLIGTSVVKIPFTILLFFLLHRWCSDKKNAAVMDQEPAGNRTVNSEDSDEQDHQEVSYA
B2: Killer cell immunoglobulin-like receptor 2DL3 (Homo sapiens), P43628 (parent)
chain: MSLMVVSMVCVGFFLLQGAWPHEGVHRKPSLLAHPGPLVKSEETVILQCWSDVRFQHFLLHREGKFKDTLHLIGEHHDGVSKANFSIGPMMQDLAGTYRCYGSVTHSPYQLSAPSDPLDIVITGLYEKPSLSAQPGPTVLAGESVTLSCSSRSSYDMYHLSREGEAHERRFSAGPKVNGTFQADFPLGPATHGGTYRCFGSFRDSPYEWSNSSDPLLVSVTGNPSNSWPSPTEPSSETGNPRHLHVLIGTSVVIILFILLLFFLLHRWCCNKKNAVVMDQEPAGNRTVNREDSDEQDPQEVTYAQLNHCVFTQRKITRPSQRPKTPPTDIIVYTELPNAEP
B3: Killer cell immunoglobulin-like receptor 2DL1 (Homo sapiens), P43626 (parent)
chain: MSLLVVSMACVGFFLLQGAWPHEGVHRKPSLLAHPGRLVKSEETVILQCWSDVMFEHFLLHREGMFNDTLRLIGEHHDGVSKANFSISRMTQDLAGTYRCYGSVTHSPYQVSAPSDPLDIVIIGLYEKPSLSAQLGPTVLAGENVTLSCSSRSSYDMYHLSREGEAHERRLPAGPKVNGTFQADFPLGPATHGGTYRCFGSFHDSPYEWSKSSDPLLVSVTGNPSNSWPSPTEPSSKTGNPRHLHILIGTSVVIILFILLFFLLHRWCSNKKNAAVMDQESAGNRTANSEDSDEQDPQEVTYTQLNHCVFTQRKITRPSQRPKTPPTDIIVYTELPNAESRSKVVSCP

Variants of: B1
Conditions: with hlac_human HLA-C
Target sequence in this assay (P10321 whole entry): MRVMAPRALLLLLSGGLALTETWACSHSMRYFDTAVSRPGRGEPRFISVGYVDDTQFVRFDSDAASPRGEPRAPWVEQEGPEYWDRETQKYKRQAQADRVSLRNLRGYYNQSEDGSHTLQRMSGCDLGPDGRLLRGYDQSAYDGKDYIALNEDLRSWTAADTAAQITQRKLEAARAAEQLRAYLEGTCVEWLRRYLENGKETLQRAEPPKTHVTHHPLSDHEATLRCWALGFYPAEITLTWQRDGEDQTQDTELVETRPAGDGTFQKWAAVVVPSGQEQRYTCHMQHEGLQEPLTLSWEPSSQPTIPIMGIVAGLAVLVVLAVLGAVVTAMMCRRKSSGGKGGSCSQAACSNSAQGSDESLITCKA

effect of a mutation on the interaction	Variant
disrupting interaction strength	K65M
with no effect	P92Q;V93D
with no effect	A205S

Variants of: B1
Conditions: with hlac_human HLA-C
Remark: another data set of the same source
Target sequence in this assay (P10321 whole entry): as above

effect of a mutation on the interaction	Variant
decreasing interaction strength	K65M
decreasing interaction strength	I123T
decreasing interaction strength	P92Q;V93D
decreasing interaction strength	A205S

Variants of: B1
Conditions: with hlac_human HLA-C
Remark: another data set of the same source
Target sequence in this assay (P10321 whole entry): as above

effect of a mutation on the interaction	Variant
with no effect	K65M

Variants of: B1
Conditions: with hlac_human HLA-C
Remark: another data set of the same source
Target sequence in this assay (P10321 whole entry): as above

effect of a mutation on the interaction	Variant
causing an interaction	K65M
increasing interaction strength	P92Q;V93D

Variants of: B1
Conditions: with hlab_human HLA-B
Target sequence in this assay (P01889 whole entry): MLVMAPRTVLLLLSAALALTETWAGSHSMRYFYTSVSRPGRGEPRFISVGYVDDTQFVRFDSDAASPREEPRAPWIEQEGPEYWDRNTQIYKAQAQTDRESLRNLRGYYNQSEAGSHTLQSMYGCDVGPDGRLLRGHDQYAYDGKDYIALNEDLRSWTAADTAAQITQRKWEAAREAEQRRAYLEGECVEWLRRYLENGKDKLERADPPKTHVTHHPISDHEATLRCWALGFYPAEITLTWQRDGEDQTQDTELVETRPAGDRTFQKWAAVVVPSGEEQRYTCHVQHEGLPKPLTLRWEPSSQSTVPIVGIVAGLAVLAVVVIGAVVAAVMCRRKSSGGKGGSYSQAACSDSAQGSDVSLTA

effect of a mutation on the interaction	Variant
causing an interaction	P92Q;V93D
causing an interaction	A205S

Variants of: B1
Conditions: with hlac_human HLA-C
Remark: another data set of the same source
Target sequence in this assay (P10321 whole entry): as the sequence (P10321 whole entry) above

effect of a mutation on the interaction	Variant
causing an interaction	P92Q;V93D
causing an interaction	A205S

Variants of: B2
Conditions: with hlac_human HLA-C
Target sequence in this assay (P10321 whole entry): as above

effect of a mutation on the interaction	Variant
decreasing interaction strength	Q92P;D93V;T105P
increasing interaction strength	Q92P
decreasing interaction strength	Q92P;D93V
decreasing interaction strength	T105P

Variants of: B2
Conditions: with hlac_human HLA-C
Remark: another data set of the same source

effect of a mutation on the interaction	Variant
disrupting interaction strength	Q92P;D93V;T105P
disrupting interaction strength	Q92P;D93V
disrupting interaction strength	T105P

Variants of: B2
Conditions: with hlab_human HLA-B
Target sequence in this assay (P01889 whole entry): as the sequence (P01889 whole entry) above

effect of a mutation on the interaction	Variant
decreasing interaction strength	Q92P

Variants of: B3
Conditions: with hlac_human HLA-C

effect of a mutation on the interaction	Variant
increasing interaction strength	Q92P
decreasing interaction strength	Q92P;D93V;T105P

The next lines start with the variant.

Variant	effect of a mutation on the interaction
Q92P;D93V	decreasing interaction strength
T105P	decreasing interaction strength

Variants of: B3
Conditions: with hlac_human HLA-C
Remark: another data set of the same source

effect of a mutation on the interaction	Variant
decreasing interaction strength	Q92P
